Biological target: protein-base BG505 trimer (BG505 DS-SOSIP-2G-3Mut-RnS7Mut) (HIV-1 (BG505)) (UniProt Q2N0S6)
Assay: SPR; 2G12 antibody immobilised on a CM5 chip (about 2,000 RU), HIV trimer loaded onto it; sCD4 injected at five concentrations (30-500 nM), single cycle, 50 uL/min; 10 mM HEPES pH 7.4, 150 mM NaCl, 3 mM EDTA, 0.05% P-20; Biacore T-200

For “soluble construct of CD4 containing the first two domains (sCD4) (domain or fragment)”, the Kd was 1200 nM.

— paper PMC10404741
